# Article doi:10.1101/2025.08.22.671756
# Target: Drosophila melanogaster insulin receptor ectodomain (dmIR-ECD) (Drosophila melanogaster) (UniProt P09208)
# Assay: cryo-EM structure
# Chain of Drosophila insulin-like peptide 2 (DILP2), synthetic two-chain hormone with the A-chain starting at GlnA5 (ligand) (Q9VT51 27-137): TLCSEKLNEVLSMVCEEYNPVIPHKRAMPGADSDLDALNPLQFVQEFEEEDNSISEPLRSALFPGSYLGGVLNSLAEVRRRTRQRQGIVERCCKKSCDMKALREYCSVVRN
# Chain of Drosophila melanogaster insulin receptor ectodomain (dmIR-ECD) (Drosophila melanogaster) (P09208 291-1309): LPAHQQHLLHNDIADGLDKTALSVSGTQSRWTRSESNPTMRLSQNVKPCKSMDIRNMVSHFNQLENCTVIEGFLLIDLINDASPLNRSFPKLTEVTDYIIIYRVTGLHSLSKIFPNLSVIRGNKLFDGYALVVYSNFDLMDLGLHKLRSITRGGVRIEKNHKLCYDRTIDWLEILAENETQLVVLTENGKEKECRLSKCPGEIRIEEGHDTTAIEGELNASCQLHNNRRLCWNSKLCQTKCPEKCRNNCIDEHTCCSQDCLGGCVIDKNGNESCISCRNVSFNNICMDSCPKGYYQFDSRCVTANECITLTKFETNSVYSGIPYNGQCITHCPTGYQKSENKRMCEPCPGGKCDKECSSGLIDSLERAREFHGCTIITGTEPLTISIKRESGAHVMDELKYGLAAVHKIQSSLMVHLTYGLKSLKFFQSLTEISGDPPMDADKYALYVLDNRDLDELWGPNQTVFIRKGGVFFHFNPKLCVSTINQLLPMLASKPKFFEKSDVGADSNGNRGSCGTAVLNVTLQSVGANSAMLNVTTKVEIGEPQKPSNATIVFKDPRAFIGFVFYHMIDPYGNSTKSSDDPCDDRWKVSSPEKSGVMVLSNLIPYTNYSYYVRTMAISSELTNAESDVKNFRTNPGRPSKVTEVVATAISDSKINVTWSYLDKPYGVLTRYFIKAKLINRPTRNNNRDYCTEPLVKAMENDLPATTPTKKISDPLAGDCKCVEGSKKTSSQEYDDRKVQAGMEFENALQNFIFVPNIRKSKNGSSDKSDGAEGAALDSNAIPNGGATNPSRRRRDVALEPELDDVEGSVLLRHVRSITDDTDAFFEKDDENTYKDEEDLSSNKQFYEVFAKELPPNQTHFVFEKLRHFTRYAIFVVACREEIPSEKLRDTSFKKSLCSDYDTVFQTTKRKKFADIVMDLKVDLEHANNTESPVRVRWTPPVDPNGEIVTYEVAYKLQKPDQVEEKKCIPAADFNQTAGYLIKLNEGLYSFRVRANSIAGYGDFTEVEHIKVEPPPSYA
substance,measurement,value
"Drosophila insulin-like peptide 2 (DILP2), synthetic two-chain hormone with the A-chain starting at GlnA5 (ligand)",stoichiometry N (DILP2 per dmIR-ECD (conformer 1)),1
same,stoichiometry N (DILP2 per dmIR-ECD (conformer 2)),2
